The data set can be described thus: amyloid nucleation score (Sup35N fusion, yeast selection) (log enrichment); library NNK1; higher = more nucleation; inactive = no reads after selection. Summed up:
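After 24 hours of induction with 100 μM copper sulfate, psi-negative yeast expressing peptides of 20 random codons fused to Sup35N were grown for 7 days at 30°C on medium lacking adenine and uracil. Input and output plasmid inserts were sequenced with Illumina, and sequences with under 100 input reads were discarded. Scores for nucleation are the DiMSum log enrichment of output over input reads, centred on the mode score of non-aggregating sequences.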

± gives the uncertainty stated by the source.

Substance MSLPYVICQQDR yielded an amyloid nucleation score of -0.794 ± 1.4.

The substance LLVCSKRSGLVSLLLVIYAF displayed an amyloid nucleation score of -0.522 ± 1.4.

Consider RFSWMQLWCECVLHY, for which the amyloid nucleation score was -0.162 ± 0.3.

GNMSPFKNLTFAEQLDAPRD: the amyloid nucleation score was found to be 0.016 ± 1.2.

Substance VVDVHVSFRCLFKMGV gave an amyloid nucleation score of 1.51 ± 0.4.

The substance CALLRCMLGSYSQYVARVGE returned an amyloid nucleation score of 0.504 ± 0.39.

For SEHRMASRHVNPRPGGKDCR, the amyloid nucleation score was -1.54 ± 2.7.

Take FFRRDFFFYNSLGMH: the amyloid nucleation score came out at 0.233 ± 1.4.

With GTSSYMV, the amyloid nucleation score is -0.01 ± 0.23.

Substance GNVYVKISVTVFADDYVLRV came in with an amyloid nucleation score of 3.81 ± 0.11.

QVTRDGSYVGCGGGRRREMC returned an amyloid nucleation score of -0.359 ± 1.9.

Substance NNCYLDTSLSNLIRDGSSPV showed an amyloid nucleation score of -0.453 ± 0.64.

MCLAMSIFDKTENK gave an amyloid nucleation score of -0.731 ± 0.73.

KKGLLIVVVAHSERYVVDIA displayed an amyloid nucleation score of -0.547 ± 0.44.

Regarding RFTLCCRMNGLVRYMSEN, the amyloid nucleation score entry is “inactive”.

As to GCCSEDFNINGVFCSCPKFC, the amyloid nucleation score turned out to be 7.157 ± 0.057.

CANFVFCCMGE gave an amyloid nucleation score of 7.396 ± 0.072.

For the substance DQFCDMPTWVLVMYKSRDFL, the amyloid nucleation score is 0.862 ± 0.55.

In turn, IDEVEGIRRFGLWELRLVCP registered an amyloid nucleation score of -0.225 ± 0.28.

The substance ILCIESLSGFPWLICIENSL yielded an amyloid nucleation score of 0.135 ± 0.39.

The substance PVLKPGFL returned an amyloid nucleation score of -0.266 ± 0.5.

In turn, RSVFEKNWVGCITEMTIWFA showed an amyloid nucleation score of -0.47 ± 0.73.

NSVIWRMG had an amyloid nucleation score of 1.42 ± 0.3.

As for RFNREFMSSSVLRSWNDGYG, the amyloid nucleation score is -0.635 ± 0.62.

In turn, LTLICSSGEC had an amyloid nucleation score of 2.14 ± 0.17.

In turn, LSQTKSL displayed an amyloid nucleation score of -0.012 ± 0.77.

On to MVGDARFYAANSG, for which the amyloid nucleation score amounted to 1.14 ± 0.79.

With SEWGSQSSGAGSFTMV, the amyloid nucleation score is -1.35 ± 2.4.

The substance LLQMWMEWRVFYYHLFVSAS displayed an amyloid nucleation score of 0.085 ± 0.55.

Consider LNHSAIRHTVSGLNPWSWAG, for which the amyloid nucleation score was -0.288 ± 1.5.

SKVNISSYNSCFVRKGCQCR gave an amyloid nucleation score of 6.328 ± 0.046.

Regarding MYWESSSHEHVSEKPVRLIL, the amyloid nucleation score worked out at 1.07 ± 0.84.

LAVFRCAARYYWNSFCLSRT came in with an amyloid nucleation score of 0.03 ± 0.21.

DVYVWGGCLVSIKVLWMAWG came in with an amyloid nucleation score of 0.117 ± 0.94.

In the case of DDNSMSDTHLL, the amyloid nucleation score came out at 1.13 ± 0.25.

For the substance DDRTKLQLSMRWEQQIMRHR, the amyloid nucleation score worked out at 3.48 ± 0.12.

For GWNHWADTSGTLGK, the amyloid nucleation score worked out at 0.502 ± 0.73.

In the case of GIGFNHVSHLVKENS, the amyloid nucleation score is -0.192 ± 0.97.

Turning to VMESTRNFSKVMSCSLFRFR, the amyloid nucleation score was -0.684 ± 0.62.

On to TYALITADI, for which the amyloid nucleation score amounted to 0.193 ± 0.18.

Regarding FDADGHPLKTPLCMGLSCGG, the amyloid nucleation score was -0.129 ± 1.6.

The substance IAGFEVARPSNSKTFFPSKF displayed an amyloid nucleation score of 2.07 ± 0.14.

QRSLMDAPMGKPRESNLLLV came in with an amyloid nucleation score of 1.1 ± 0.57.

For GNYSG, the amyloid nucleation score result is “inactive”.

Turning to DGSSLSPDPSLVWLKDM, the amyloid nucleation score is -0.823 ± 0.55.

In turn, TLQNNLTFPDCLGLRCGSHV registered an amyloid nucleation score of 5.03 ± 0.085.

In the case of MSSHVTHAS, the amyloid nucleation score is 0.495 ± 1.

Substance LTIRQWRFITAVGDLFLWMR showed an amyloid nucleation score of 0.331 ± 0.58.

With WTFGLGSGVSGVSLERGPLG, the amyloid nucleation score was -0.622 ± 1.7.

As for KWYERLCIRATLKATLGYFT, the amyloid nucleation score was found to be 0.055 ± 0.69.

With SVAFWSVCRVLGTDADMDRI, the amyloid nucleation score was -0.254 ± 0.58.

IFVVGAGLHDKTNGYVYRSR: the amyloid nucleation score turned out to be 0.164 ± 0.24.

Turning to SRFNSWLCCEND, the amyloid nucleation score was 1.76 ± 0.35.

Turning to SRVRHFVSFFTV, the amyloid nucleation score was -0.333 ± 0.58.

As to QNTSEYSLRRERSR, the amyloid nucleation score was -0.341 ± 0.5.

Turning to RESGMTMHVVPQPLDTKTWC, the amyloid nucleation score turned out to be 0.612 ± 0.72.

As for SEHVIIGRRDFV, the amyloid nucleation score was -0.018 ± 1.

For the substance NKIGRGVVCSRLWTCCSCFM, the amyloid nucleation score is 8.554 ± 0.079.

SFANVGSVGWAMYSGYTSRT showed an amyloid nucleation score of 0.002 ± 0.84.

In the case of WTSMGTHTFSVRNRSGPHNG, the amyloid nucleation score worked out at 1.22 ± 0.62.

Substance LTGSRIMCFSMWR gave an amyloid nucleation score of -1.02 ± 0.43.

NTTHDGLRCEIRVWSENRRR showed an amyloid nucleation score of 1.39 ± 0.3.

With ETARLCRWSYK, the amyloid nucleation score was determined as 2.22 ± 0.18.

Substance CWLTRCCITWVIHRVMANLM gave an amyloid nucleation score of 0.51 ± 0.84.

Consider SSNWFPR, for which the amyloid nucleation score was -0.07 ± 0.59.

With FSVYAWGVFFDAVWFSCAVA, the amyloid nucleation score worked out at 1.29 ± 0.84.

In turn, FSCYM registered an amyloid nucleation score of 0.245 ± 0.9.

Substance ISPRHNYPQILMVLLIKVYF registered an amyloid nucleation score of -1.33 ± 1.3.

MRIHCVN yielded an amyloid nucleation score of -0.529 ± 2.1.

On to IERKLCKIGVMK, for which the amyloid nucleation score stood at 0.597 ± 0.65.

The substance GAVARIIDAVCVRLV displayed an amyloid nucleation score of -0.643 ± 1.1.

With DLVYVSRLYISVNRYPSWFV, the amyloid nucleation score is -0.462 ± 0.51.

Substance NMVGFILLGY returned an amyloid nucleation score of -0.179 ± 0.29.

MISFCSSWKLEQYEWWRRNL: the amyloid nucleation score worked out at 1.35 ± 0.32.

For the substance VPENLVKMSEV, the amyloid nucleation score was found to be 0.279 ± 0.71.

ATKSLRIYLARVMHETSTFG yielded an amyloid nucleation score of -0.822 ± 0.61.

For the substance EFYYMKLRYRVRRKF, the amyloid nucleation score was -0.716 ± 0.45.

NPGEWYNSYRSNGEGMRLYE registered an amyloid nucleation score of -0.288 ± 0.88.

RQPVRAMHLDISVRWSYWSV displayed an amyloid nucleation score of 2.79 ± 0.12.

Substance SNYYWVAWGDSPLQVHP displayed an amyloid nucleation score of 0.626 ± 0.81.

The substance YGNKTYFAPR gave an amyloid nucleation score of 0.557 ± 0.51.

Consider YARWVGVSKVRNTQICNSMR, for which the amyloid nucleation score is -0.543 ± 0.79.

DETLEEPCT gave an amyloid nucleation score of 0.017 ± 0.43.

The substance YCIPTVRVFL gave an amyloid nucleation score of 0.575 ± 0.66.

VWFCIYAFVHSYGLYVVSMV had an amyloid nucleation score of -0.03 ± 0.31.

For NSIVVTT, the amyloid nucleation score amounted to 0.114 ± 0.54.

In the case of VSLMCVALYKQISTRI, the amyloid nucleation score was 0.102 ± 0.51.

HWVDLVGESNNSISFAVVFC: the amyloid nucleation score amounted to 4.9 ± 0.079.

In the case of EVDFNSSFTWSHMSSKCRMF, the amyloid nucleation score is -0.046 ± 0.54.

In the case of IFVALRRD, the amyloid nucleation score was -1.29 ± 1.3.

Consider EHLLCVSRCMLSSNLVTNCA, for which the amyloid nucleation score is -0.113 ± 0.94.

With RKDRLTIGNRNL, the amyloid nucleation score was determined as 0.73 ± 0.69.

For the substance CGVEA, the amyloid nucleation score is -0.542 ± 0.76.

In the case of RGIAVWCTN, the amyloid nucleation score was 0.286 ± 0.97.

For the substance RMMSGRWFMMWWLLVANRGV, the amyloid nucleation score result is “inactive”.

In turn, YFIARREQFWIMLPGELALE registered an amyloid nucleation score of -0.756 ± 1.7.

TVHSLV: the amyloid nucleation score is -0.276 ± 0.38.

In turn, YYFEVAVGQMSFTANVLVLS displayed an amyloid nucleation score of 2.34 ± 0.28.

In turn, SRVSFLNFWN yielded an amyloid nucleation score of 4.27 ± 0.15.

Regarding DFEDTYSWKVTGEGATRKRW, the amyloid nucleation score stood at 0.166 ± 0.49.

As for MRFYAMGRDVYICCDGNKIL, the amyloid nucleation score amounted to 5.07 ± 0.066.

TVRCSMGYILYRWVHSRLGR returned an amyloid nucleation score of 1.4 ± 0.48.

As to RDTTTT, the amyloid nucleation score was 0.088 ± 0.33.

Regarding CGKPPFGNYWGTWCKIVVTL, the amyloid nucleation score was 0.746 ± 0.62.

With SEEGGNTASNRVDWYTTGIV, the amyloid nucleation score stood at 0.95 ± 0.48.

In the case of HPSSKLSRMCLD, the amyloid nucleation score turned out to be 0.717 ± 0.93.

For the substance ISSLESRTTMRVV, the amyloid nucleation score is 0.377 ± 0.5.

With TYWNVLNAVGQALPSIYGIG, the amyloid nucleation score was determined as 0.955 ± 0.63.

As to YWPPGFAVS, the amyloid nucleation score stood at 1.01 ± 0.81.

Consider AWNGFDWYHARFCTMSTYIL, for which the amyloid nucleation score is -0.56 ± 0.38.

The substance HGRQE displayed an amyloid nucleation score of 0.184 ± 1.

As for TVGSIQKAEYWIHGYMATVN, the amyloid nucleation score was found to be 0.169 ± 0.29.

For SSIIILSNMLTYK, the amyloid nucleation score is 3.61 ± 0.1.

The substance IFSNQSATLGLSVSSWIYLE came in with an amyloid nucleation score of -0.983 ± 0.4.

As to SRLMV, the amyloid nucleation score was 0.547 ± 0.71.

The substance LAWLQCRAGETFITWRHQFY returned an amyloid nucleation score of 0.544 ± 0.55.

LFMGVRTKVNGSAVI: the amyloid nucleation score turned out to be 0.183 ± 0.17.

Substance AALTCLCCWAFFVISKNNYQ had an amyloid nucleation score of 0.995 ± 0.58.

Consider KLLPYMYCHYN, for which the amyloid nucleation score was 1.27 ± 0.39.

Substance LSHWMPVN had an amyloid nucleation score of -0.527 ± 0.34.

NGNEYMVHRHADKWNTGQYR: the amyloid nucleation score is 5.83 ± 0.084.

SCNYWCERVQGNSLWVGWVH returned an amyloid nucleation score of -0.126 ± 0.35.

SKSSRTFLVFSLVWVYNLLM displayed an amyloid nucleation score of 1.73 ± 0.19.

In the case of QAFISFVVSFRWHLTCRS, the amyloid nucleation score came out at 1.18 ± 0.64.

For the substance GCDYARPINWCDTPYGSFNL, the amyloid nucleation score was -2.49 ± 2.4.

In turn, SFSRFVVMMKGIRAGKSSHT displayed an amyloid nucleation score of 0.156 ± 0.72.

For the substance LGDVSRYFCCIQGNNYRM, the amyloid nucleation score was determined as 5.51 ± 0.057.

RLYFYGFRDSLWQFNLSEEH showed an amyloid nucleation score of 7.619 ± 0.052.

VFGVPVTCGGRPVFLIKVVG gave an amyloid nucleation score of -0.794 ± 1.4.

As to MFDTRDRMAALTFVKRMWCK, the amyloid nucleation score result was “inactive”.

For YSHYNTIGLYILSKVSSMAV, the amyloid nucleation score entry is “inactive”.

As for CFVVYGQTPSTVPRINAVLS, the amyloid nucleation score came to 6.46 ± 0.069.

For APQFTKGFSEFGDLGAMRRA, the amyloid nucleation score was found to be 0.196 ± 0.67.

As for IKLFLRNIV, the amyloid nucleation score was -0.252 ± 0.59.

Substance GKTRK gave an amyloid nucleation score of -0.782 ± 1.7.

Substance DMFCQAI came in with an amyloid nucleation score of 0.773 ± 0.39.

In turn, FENIDLP showed an amyloid nucleation score of -0.364 ± 0.62.

RHGKASSSEWNAYRARDRGV gave an amyloid nucleation score of 0.761 ± 0.82.

The substance SAGGHSLSVTYWSGCSLRTV came in with an amyloid nucleation score of 0.272 ± 0.23.

YILNGVPVKAFFLGYGADYS returned an amyloid nucleation score of -0.979 ± 1.3.

As to MIRPVFLVFVYMLFCLGNCT, the amyloid nucleation score turned out to be 0.383 ± 0.28.

In turn, VYLKKSLFL came in with an amyloid nucleation score of -0.484 ± 0.9.

The values above are taken from the supplement of paper PMC12042874.
